Results reported in US20220056091A1.
Changes are numbered by the printed parent chain. Names may count otherwise.

Target: T1, Fc fused human IL-18BP isoform a (IL-18BPa) (human), O95998
T1 chain: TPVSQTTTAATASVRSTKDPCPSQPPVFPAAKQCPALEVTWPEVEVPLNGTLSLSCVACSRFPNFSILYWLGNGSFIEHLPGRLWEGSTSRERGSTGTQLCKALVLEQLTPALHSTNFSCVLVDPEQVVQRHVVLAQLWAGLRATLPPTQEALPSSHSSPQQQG
Assay: SPR, Fc-IL-18BPa captured, 1:1 model
Details: remark: other sources report otherwise

B1: Modified IL-18 polypeptide of SEQ ID NO: 2 (E06K, K53A, S55A), Q14116 37-193 (ligand)
chain: YFGKLKSKLSVIRNLNDQVLFIDQGNRPLFEDMTDSDCRDNAPRTIFIISMYADAQPRGMAVTISVKCEKISTLSCENKIISFKEMNPPDNIKDTKSDIIFFQRSVPGHDNKMQFESSSYEGYFLACEKERDLFKLILKKEDELGDRSIMFTVQNED
- Kd: 323 nM
- koff: 0.0154 s⁻¹
- kon: 47800 M⁻¹ s⁻¹

B2: Modified IL-18 polypeptide of SEQ ID NO: 3 (Y01G, F02A, E06K, M51G, K53A, D54A, S55A, T63A), Q14116 37-193 (ligand)
chain: B1 chain with Y1G, F2A, M51G, D54A, T63A
- Kd: > 1000 nM

B3: Modified IL-18 polypeptide of SEQ ID NO: 17 (E06K, K53A, S55A, C38S, C68S, C76S, C127S, K70C), Q14116 37-193 (ligand)
chain: B1 chain with C38S, C68S, K70C, C76S, C127S
- Kd: 1000 nM
